Columns and labels:
[1] = target: B7-H3 on human cancer cells (human) (UniProt Q5ZPR3); assay: flow cytometry on HCT116 colorectal cancer cells; control (secondary antibody only) < 25%
[2] = target: T1, ALWFCLTGALEVQVP; assay: peptide microarray, 15-mers of human 4Ig B7-H3; panel Ig-like-V type 1
T1 construct: 15-mer of human 4Ig B7-H3 on the peptide microarray, panel Ig-like-V type 1
T1 peptide: ALWFCLTGALEVQVP
Protocol: (§1) It was confirmed that G2D IgG has linear epitopes since G2D was verified to recognize 4lg B7-H3 through western blot (FIG. 10a). Therefore, linear epitope mapping was conducted by Pepperprint GmbH (Germany). After preparing a peptide microarray from the 15 4lg B7-H3 amino acids with 14-amino acid overlaps, the antibodies binding to peptides were identified using secondary antibodies (FIG. 10b). As a result, it was confirmed that G2D IgG binds to a peptide having a sequence of EVQVP (FIG. 10c). EVQVP is located in the Ig-like V-type1 and Ig-like V-type2 domains of 4lg B7-H3 (FIGS. 10d and 10e). When the epitopes of the control antibody enoblituzumab were identified by the same method, it was confirmed that the epitopes include the sequence of GYPEAE (FIG. 10b), and GYPEAE is located in the Ig-like C2-type1 and Ig-like C2-type2 domains of 4lg B7-H3 (FIGS. 10d and 10e). As a result, it was confirmed that G2D IgG and the control antibody enoblituzumab have different epitopes.

[3] = target: T2, FCLTGALEVQVPEDP; assay: as above
T2 construct: 15-mer of human 4Ig B7-H3 on the peptide microarray, panel Ig-like-V type 1
T2 peptide: FCLTGALEVQVPEDP
Protocol: as §1

[4] = target: T3, CLTGALEVQVPEDPV; assay: as above
T3 construct: 15-mer of human 4Ig B7-H3 on the peptide microarray, panel Ig-like-V type 1
T3 peptide: CLTGALEVQVPEDPV
Protocol: as §1

[5] = target: T4, LWFCLTGALEVQVPE; assay: as above
T4 construct: 15-mer of human 4Ig B7-H3 on the peptide microarray, panel Ig-like-V type 1
T4 peptide: LWFCLTGALEVQVPE
Protocol: as §1

[6] = target: T5, GALEVQVPEDPVVAL; assay: as above
T5 construct: 15-mer of human 4Ig B7-H3 on the peptide microarray, panel Ig-like-V type 1
T5 peptide: GALEVQVPEDPVVAL
Protocol: as §1

[7] = target: T6, WFCLTGALEVQVPED; assay: as above
T6 construct: 15-mer of human 4Ig B7-H3 on the peptide microarray, panel Ig-like-V type 1
T6 peptide: WFCLTGALEVQVPED
Protocol: as §1

[8] = target: T7, B7-1 (UniProt P33681 35-242); assay: indirect ELISA, B7-1 coated at 1 ug/mL, absorbance at 450 nm
T7 sequence (looked up): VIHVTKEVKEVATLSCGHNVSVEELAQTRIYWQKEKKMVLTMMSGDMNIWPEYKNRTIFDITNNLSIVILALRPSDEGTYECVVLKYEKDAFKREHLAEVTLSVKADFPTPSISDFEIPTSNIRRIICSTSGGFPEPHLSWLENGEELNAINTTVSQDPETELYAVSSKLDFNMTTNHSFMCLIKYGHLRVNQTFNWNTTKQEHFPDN
Protocol: [The procedure below names another target; the source lists this target under the same test.] (§2) The binding ability of 2D IgG prepared in Example 2 for recombinant B7-H3 protein was investigated by indirect ELISA. For indirect ELISA, recombinant human 4lg B7-H3, recombinant human 2lg B7-H3 and recombinant mouse B7-H3 were diluted respectively to 1 μg/mL in 50 μL of PBS and adsorbed overnight onto a 96-well immunoplate (Corning, USA) by storing at 4° C. After reaction with a buffer solution containing 3% bovine serum albumin at room temperature for 1 hour, followed by washing 3 times with a buffer solution containing 0.5% Tween 20, each well was treated with 50 μL of the antibodies diluted serially (0.0001, 0.0003, 0.001, 0.003, 0.01, 0.03, 0.1, 0.3, 1, 3 and 10 nM). For antigen-antibody binding, the mixture was reacted at room temperature for 2 hours, and then washed 3 times with a buffer solution containing 0.5% Tween 20. After treating each well with 50 μL of anti-human immunoglobulin Fc-HRP antibodies (Jackson Immunoresearch, USA) diluted to 1:3,000, reaction was conducted at room temperature for 1 hour. […] As a result of measuring absorbance at 450 nm using a spectrophotometer (Biotek, USA), it was confirmed that 2D IgG binds to B7-H3, and the binding ability was in the order of 4lg B7-H3, 2lg B7-H3 and mouse B7-H3 (FIG. 2a). […]

[9] = target: B7-H3 on human cancer cells (human) (UniProt Q5ZPR3); assay: flow cytometry on U87 brain tumor cells; control (secondary antibody only) < 10%
[10] = target: B7-H3 on human cancer cells (human) (UniProt Q5ZPR3); assay: flow cytometry on U251 brain tumor cells; control (secondary antibody only) < 10%
[11] = target: B7-H3 on human cancer cells (human) (UniProt Q5ZPR3); assay: cell-based or functional assay
[12] = target: B7-H3 on human cancer cells (human) (UniProt Q5ZPR3); assay: flow cytometry on MIA-PaCa2 pancreatic cancer cells; control (secondary antibody only) < 25%
[13] = target: T8, B7-2 (UniProt P42081 24-247, limits assumed); assay: indirect ELISA, B7-2 coated at 1 ug/mL, absorbance at 450 nm
T8 sequence (looked up): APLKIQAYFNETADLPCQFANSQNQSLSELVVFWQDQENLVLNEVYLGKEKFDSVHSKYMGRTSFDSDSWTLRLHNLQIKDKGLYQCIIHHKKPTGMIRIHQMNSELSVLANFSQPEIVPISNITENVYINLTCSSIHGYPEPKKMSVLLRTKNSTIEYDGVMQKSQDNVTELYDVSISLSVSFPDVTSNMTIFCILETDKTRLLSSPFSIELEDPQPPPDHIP
Protocol: [The procedure below names another target; the source lists this target under the same test.] as §2

[14] = target: B7-H3 on human cancer cells (human) (UniProt Q5ZPR3); assay: flow cytometry on HepG2K liver cancer cells; control (secondary antibody only) < 20%

% of cells in the positive gate [1]: > 95%
fluorescence intensity of the peptide spot [2]: 122
fluorescence intensity of the peptide spot [3]: 63
fluorescence intensity of the peptide spot [4]: 138
fluorescence intensity of the peptide spot [5]: 17.3
fluorescence intensity of the peptide spot [6]: 20
fluorescence intensity of the peptide spot [7]: 24.8
binding result [8]: no binding (tested: 10 nM)
% of cells in the positive gate [9]: > 95%
% of cells in the positive gate [10]: > 95%
% of cells in the positive gate [12]: > 95%
binding result [13]: no binding (tested: 10 nM)
% of cells in the positive gate [14]: > 95%
B1: G2D IgG (antibody, V domains shown)
VH: QVQLVESGGGLVQPGGSLRLSCSASGFDFSSYPMVWVRQAPGKGLEYVSSINSGGSWTGYGAAVKGRATISRDNSKNTLYLQMNSLRAEDTATYYCARAYGAATIDAWGQGTTVTVSS
VL: SYELTQPPSVSVSPGQTARITCSGGSIGYGWYQQKAPGQAPVTVIYYNDRRPSGIPERFSGSKSGTTNTLTISGVQAEDEADYYCGSADSSSTYTGIFGGGTKLTVL
notes: The back-substitutions (L46T, S66K, V71N in VL); also called humanized 2D; G2D antibody
T cell-mediated A549 cell-killing effect (GFP fluorescence of A549 cells after 48 h co-culture with activated PBMCs; negative control group = 100) [11]: 69.3
T cell-mediated cancer cell-killing effect as compared to the negative control group [11]: 30%
